Laboratory results reported in PMC6326806.

Legend:
Plk1 [1] = target: Plk1 (UniProt P53350); experiment: GFP-trap co-IP of Myc-Plk1; conditions: reference: GFP-B-Myb wild type; sites T476
Plk1 [2] = target: Plk1 (UniProt P53350); experiment: GST-Plk1 pull-down from cell lysate; conditions: reference: wild type; sites T476

binding against the reference (Plk1 [1]) | binding against the reference (Plk1 [2]) | Substance
lost |  | B-Myb (from UniProt P10244) GFP-B-Myb T476A
 | lost | B-Myb (from UniProt P10244) T476A
